The test system of this data set is Escherichia coli TOP10. The experiment in a line: shrunken log2 fold change of peptide-encoding DNA abundance (4.5 h post-induction vs induction); higher = less antimicrobial activity (less host growth inhibition). The note with it: time post-induction: 4.5 h; library: site-saturation at positions 5, 18, 19, 20.
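Also: peptides expressed intracellularly from a pBAD plasmid library in pooled LB shake-flask culture, induced with 0.3% L-arabinose, DNA abundance read by NGS, three biological replicates, DESeq2 with apeglm shrinkage.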

Turning to RRIRVRPPRLPRPRPRPHGMPRP, the “shrunken log2 fold change” value is -0.582.
In the case of RRIRWRPPRLPRPRPRPPKFPRP it was 0.419; in that of RRIRRRPPRLPRPRPRPATVPRP, -0.037.
On to RRIRARPPRLPRPRPRPMAQPRP, for which the “shrunken log2 fold change” value came to 0.23.
For RRIRPRPPRLPRPRPRPGFCPRP, the “shrunken log2 fold change” value is 0.295.
In the case of RRIRLRPPRLPRPRPRPTFNPRP it was -0.289; in that of RRIRIRPPRLPRPRPRPMPLPRP, 0.124.
In the case of RRIRTRPPRLPRPRPRPGHEPRP it was 0.0552; in that of RRIRHRPPRLPRPRPRPRYPPRP, 0.0331.
The figure for RRIRHRPPRLPRPRPRPYPYPRP is -0.43.
Consider RRIRLRPPRLPRPRPRPRARPRP, for which the “shrunken log2 fold change” value is 0.619.
As for RRIRFRPPRLPRPRPRPGPNPRP, the “shrunken log2 fold change” value is -0.0666.
For RRIRRRPPRLPRPRPRPHQHPRP, the “shrunken log2 fold change” value came to 0.0389.
The figure for RRIRRRPPRLPRPRPRPQLKPRP is 0.0988; for RRIRARPPRLPRPRPRPTNRPRP it is 0.05; for RRIRNRPPRLPRPRPRPADGPRP it is 0.085.
Turning to RRIRHRPPRLPRPRPRPNYFPRP, the “shrunken log2 fold change” value was -0.125.
Turning to RRIRTRPPRLPRPRPRPDELPRP, the “shrunken log2 fold change” value was -0.0838.
With RRIRLRPPRLPRPRPRPPKMPRP, the “shrunken log2 fold change” value was 0.159.
The figure for RRIRFRPPRLPRPRPRPCPNPRP is 0.044; for RRIRNRPPRLPRPRPRPRWWPRP it is 0.159; for RRIRGRPPRLPRPRPRPTHKPRP it is 0.854.
The figure for RRIRDRPPRLPRPRPRPADSPRP is 0.157; for RRIRKRPPRLPRPRPRPGMTPRP it is 0.129; for RRIRVRPPRLPRPRPRPAQYPRP it is -0.0437.
As for RRIRFRPPRLPRPRPRPFSKPRP, the “shrunken log2 fold change” value was determined as 0.033.
Consider RRIRNRPPRLPRPRPRPRADPRP, for which the “shrunken log2 fold change” value was 0.327.
With RRIRLRPPRLPRPRPRPYVQPRP, the “shrunken log2 fold change” value is -0.144.
In the case of RRIRGRPPRLPRPRPRPVPTPRP it was 0.865.
In the case of RRIRKRPPRLPRPRPRPQRYPRP it was 0.132.
In the case of RRIRKRPPRLPRPRPRPAPAPRP, the “shrunken log2 fold change” value is 1.05.
Turning to RRIRMRPPRLPRPRPRPIPPPRP, the “shrunken log2 fold change” value is 0.369.
The figure for RRIRWRPPRLPRPRPRPYVSPRP is -0.0404.
On to RRIRQRPPRLPRPRPRPAAPPRP, for which the “shrunken log2 fold change” value amounted to 0.243.
In the case of RRIRTRPPRLPRPRPRPTVRPRP it was 2.09.
In the case of RRIRLRPPRLPRPRPRPMHIPRP it was 0.0952; in that of RRIRSRPPRLPRPRPRPCIRPRP, -0.416.
Turning to RRIRYRPPRLPRPRPRPYNQPRP, the “shrunken log2 fold change” value is -0.922.
As for RRIRNRPPRLPRPRPRPYAKPRP, the “shrunken log2 fold change” value is -0.257.
In the case of RRIRKRPPRLPRPRPRPHAPPRP it was 0.485.
The figure for RRIRVRPPRLPRPRPRPWQNPRP is 0.013.
For RRIRYRPPRLPRPRPRPTSTPRP, the “shrunken log2 fold change” value is -0.203.
On to RRIRIRPPRLPRPRPRPAKKPRP, for which the “shrunken log2 fold change” value worked out at 0.0493.
In the case of RRIRIRPPRLPRPRPRPTVMPRP it was -0.0131; in that of RRIRPRPPRLPRPRPRPSDPPRP, -0.184.
Turning to RRIRFRPPRLPRPRPRPQWQPRP, the “shrunken log2 fold change” value is -0.08.
Consider RRIRQRPPRLPRPRPRPDDLPRP, for which the “shrunken log2 fold change” value stood at 0.0248.
Consider RRIRYRPPRLPRPRPRPDRTPRP, for which the “shrunken log2 fold change” value was -0.0309.
The figure for RRIRCRPPRLPRPRPRPLNCPRP is -0.279.
As for RRIRQRPPRLPRPRPRPTISPRP, the “shrunken log2 fold change” value was -0.379.
The figure for RRIRRRPPRLPRPRPRPNLNPRP is -0.0389; for RRIRMRPPRLPRPRPRPFLYPRP it is -0.124; for RRIRCRPPRLPRPRPRPDDTPRP it is -0.36.
The figure for RRIRHRPPRLPRPRPRPRSHPRP is -0.221; for RRIRGRPPRLPRPRPRPRAFPRP it is 0.793; for RRIRFRPPRLPRPRPRPMLKPRP it is -0.527.
On to RRIRCRPPRLPRPRPRPTFAPRP, for which the “shrunken log2 fold change” value was determined as 0.359.
In the case of RRIRDRPPRLPRPRPRPWVRPRP it was -0.21.
The figure for RRIRMRPPRLPRPRPRPSPEPRP is 1.12; for RRIRRRPPRLPRPRPRPERIPRP it is 0.0278.
For RRIRARPPRLPRPRPRPNQKPRP, the “shrunken log2 fold change” value came out at 0.0427.
In the case of RRIRHRPPRLPRPRPRPHNDPRP it was -0.329; in that of RRIRLRPPRLPRPRPRPFASPRP, -0.062.
The figure for RRIRCRPPRLPRPRPRPWCSPRP is -0.321; for RRIRMRPPRLPRPRPRPEGTPRP it is 0.0716; for RRIRVRPPRLPRPRPRPAWRPRP it is 0.712.
In the case of RRIRTRPPRLPRPRPRPFLFPRP it was -0.303; in that of RRIRDRPPRLPRPRPRPKGTPRP, -0.0298; in that of RRIRMRPPRLPRPRPRPPCPPRP, 0.564.
RRIRQRPPRLPRPRPRPGGVPRP: the “shrunken log2 fold change” value was determined as 0.463.
For the sequence RRIRDRPPRLPRPRPRPKTHPRP, the “shrunken log2 fold change” value was found to be 0.0785.
In the case of RRIRNRPPRLPRPRPRPVQKPRP it was -0.0122; in that of RRIRMRPPRLPRPRPRPTRDPRP, 0.314.
For the sequence RRIRERPPRLPRPRPRPKAEPRP, the “shrunken log2 fold change” value was found to be 0.0519.
In the case of RRIRTRPPRLPRPRPRPIEMPRP, the “shrunken log2 fold change” value is -0.25.
In the case of RRIRLRPPRLPRPRPRPVAPPRP it was 0.474; in that of RRIRFRPPRLPRPRPRPQIAPRP, 0.111; in that of RRIRVRPPRLPRPRPRPINKPRP, -0.613.
As for RRIRSRPPRLPRPRPRPFCGPRP, the “shrunken log2 fold change” value was -0.201.
The figure for RRIRSRPPRLPRPRPRPSFHPRP is -0.542.
Consider RRIRQRPPRLPRPRPRPHGSPRP, for which the “shrunken log2 fold change” value is -0.00277.
In the case of RRIRWRPPRLPRPRPRPCVEPRP it was 0.153; in that of RRIRFRPPRLPRPRPRPYDMPRP, -0.209; in that of RRIRCRPPRLPRPRPRPHSYPRP, -0.272.
Consider RRIRVRPPRLPRPRPRPDTAPRP, for which the “shrunken log2 fold change” value was -0.164.
In the case of RRIRIRPPRLPRPRPRPRGVPRP it was 0.0556; in that of RRIRHRPPRLPRPRPRPVNMPRP, -0.00401.
In the case of RRIRHRPPRLPRPRPRPDYIPRP it was -0.0135; in that of RRIRRRPPRLPRPRPRPFFNPRP, -0.0577; in that of RRIRRRPPRLPRPRPRPLQCPRP, 0.18.
The figure for RRIRWRPPRLPRPRPRPAHYPRP is -0.145; for RRIRARPPRLPRPRPRPYVHPRP it is -0.728; for RRIRMRPPRLPRPRPRPDPHPRP it is 0.0256.
Consider RRIRARPPRLPRPRPRPWYIPRP, for which the “shrunken log2 fold change” value is -0.257.
As for RRIRMRPPRLPRPRPRPDYKPRP, the “shrunken log2 fold change” value turned out to be 0.248.
The figure for RRIRVRPPRLPRPRPRPSIQPRP is -0.321; for RRIRPRPPRLPRPRPRPCAMPRP it is 0.0848.
As to RRIRHRPPRLPRPRPRPHGPPRP, the “shrunken log2 fold change” value was determined as 0.0873.
The figure for RRIRERPPRLPRPRPRPMEEPRP is 0.161; for RRIRLRPPRLPRPRPRPESNPRP it is 0.0589.
As for RRIRVRPPRLPRPRPRPRTMPRP, the “shrunken log2 fold change” value worked out at 0.0485.
In the case of RRIRLRPPRLPRPRPRPMHVPRP it was -0.0348.
As to RRIRVRPPRLPRPRPRPNIIPRP, the “shrunken log2 fold change” value was -0.303.
In the case of RRIRCRPPRLPRPRPRPHKQPRP it was -0.0354.
On to RRIRFRPPRLPRPRPRPPYCPRP, for which the “shrunken log2 fold change” value was -0.448.
As to RRIRNRPPRLPRPRPRPWATPRP, the “shrunken log2 fold change” value was -0.188.
For the sequence RRIRMRPPRLPRPRPRPPKHPRP, the “shrunken log2 fold change” value came out at 0.829.
RRIRDRPPRLPRPRPRPSDAPRP: the “shrunken log2 fold change” value is -0.218.
Regarding RRIRNRPPRLPRPRPRPSYVPRP, the “shrunken log2 fold change” value is -0.0484.
With RRIRHRPPRLPRPRPRPGVNPRP, the “shrunken log2 fold change” value is -0.000777.
The figure for RRIRSRPPRLPRPRPRPYYPPRP is -2.8.
As for RRIRHRPPRLPRPRPRPGNMPRP, the “shrunken log2 fold change” value is -0.121.
Take RRIRDRPPRLPRPRPRPVHKPRP: the “shrunken log2 fold change” value was -0.233.
Turning to RRIRTRPPRLPRPRPRPCRNPRP, the “shrunken log2 fold change” value was -0.533.
The figure for RRIRARPPRLPRPRPRPSADPRP is 0.804; for RRIRWRPPRLPRPRPRPEMIPRP it is 0.0062; for RRIRKRPPRLPRPRPRPKLFPRP it is 0.379.
In the case of RRIRPRPPRLPRPRPRPDWHPRP it was -0.159.
Take RRIRQRPPRLPRPRPRPYCVPRP: the “shrunken log2 fold change” value was -0.00867.
The figure for RRIRDRPPRLPRPRPRPSLSPRP is -0.0503; for RRIRWRPPRLPRPRPRPIYYPRP it is -0.488.
For the sequence RRIRYRPPRLPRPRPRPVNFPRP, the “shrunken log2 fold change” value came out at 0.00408.
In the case of RRIRQRPPRLPRPRPRPCQCPRP it was -0.034.
For the sequence RRIRGRPPRLPRPRPRPWPSPRP, the “shrunken log2 fold change” value amounted to 0.258.
In the case of RRIRLRPPRLPRPRPRPPPGPRP it was 1.29.

For the origin of these results see the supplement of paper PMC9112550, “Optimization of the antimicrobial peptide Bac7 by deep mutational scanning” (BMC Biology, 2022).
